Molecular target: T1, SARS-CoV-2 RBD of the Wuhan strain (Acro Biosystems SPD-C82E9-25) (SARS-CoV-2, Wuhan strain, UniProt P0DTC2)
T1 construct: source: bought: Acro Biosystems
Test: SPR; Biacore 8K+, […]; 10 mM HEPES pH 7.4, 150 mM NaCl, 3 mM EDTA, 0.05% Tween 20; […]
Conditions: both partners purified

B1: MB043_CL39 (antibody, V domains shown)
VH: EVQLVETGGGLIHPGGSLRLSCAASEFIVSYNYMSWVRQAPGKGLEWVSVIYSGGSTFYADAVKGRFTISRDSSKNTLDLLMNSLRVEDTAVYYCARVLPSNTDYFDYWGQGILVTVSS
VL: QSVLTQPPSVSGATGQRVTISCTGSNSNIGAGSDVHWYQQLPGAAPKLLIYVNNNRPSGVPDRFSGSKSGTSASLAITGLQAEDEADYYCQSYDSSLSGYVFGTGTKVTVL
- fold higher affinity than MB027_D06L: > 200 fold
